Experimental data published in paper doi:10.1101/2024.01.03.573903v1.

Substrate: Nc1ncnc2c1ncn2[C@@H]1O[C@H](COP(=O)(O)OP(=O)(O)OP(=O)(O)O)[C@@H](O)[C@H]1O
Assay: malachite green phosphate release NTPase assay
Type: biochemical, Zika virus
Conditions: no curcumin, 1% DMSO, 80 nM enzyme, Tris pH 7.4, 25 °C

B1: ZIKV NS3 helicase (Zika virus) (protein)
chain: PVECFEPSMLKKKQLTVLDLHPGAGKTRRVLPEIVREAIKKRLRTVILAPTRVVAAEMEEALRGLPVRYMTTAVNVTHSGTEIVDLMCHATFTSRLLQPIRVPNYNLNIMDEAHFTDPSSIAARGYISTRVEMGEAAAIFMTATPPGTRDAFPDSNSPIMDTEVEVPERAWSSGFDWVTDHSGKTVWFVPSVRNGNEIAACLTKAGKRVIQLSRKTFETEFQKTKNQEWDFVITTDISEMGANFKADRVIDSRRCLKPVILDGERVILAGPMPVTHASAAQRRGRIGRNPNKPGDEYMYGGGCAETDEGHAHWLEARMLLDNIYLQDGLIASLYRPEADKVAAIEGEFKLRTEQRKTFVELMKRGDLPVWLAYQVASAGITYTDRRWCFDGTTNNTIMEDSVPAEVWTKYGEKRVLKPRWMDARVCSDHAALKSFKEFAAGKR
Work on B1 yielded a Km of 336.3 ± 61.97 µM and a kcat of 1.025 ± 0.06 s⁻¹.
